Test results reported in patent US20260242478A1 (published 2026).
Where no end group is shown, it is not given here.

B1: Phage-2379 (peptide)
peptide: LHKWCTPAWMCEVP
B2: Phage-2328 (peptide)
peptide: VDKWCIPAWMCVSA
B3: Phage-2319 (peptide)
peptide: SDNWCKPKWMCETI
B4: Phage-2382 (peptide)
peptide: DFMRCTPEWMCTGF
B5: Phage-2381 (peptide)
peptide: LGIWCIPEWMCVSA
B6: Phage-2318 (peptide)
peptide: LEKWCTPVWMCEGV
B7: Phage-2376 (peptide)
peptide: PDKWCIPQWMCDIT
B8: Phage-2395 (peptide)
peptide: ASMWCIPPWMCAED
B9: Phage-2390 (peptide)
peptide: VFHLCMPPWMCSQD
B10: Phage-2323 (peptide)
peptide: WDHWCTPAWMCFNA
B11: Phage-2375 (peptide)
peptide: DGKWCIPPWMCAMA
B12: Phage-2378 (peptide)
peptide: VVKWCIPTWMCQTL
B13: Phage-2389 (peptide)
peptide: WVKWCTPPWMCEWD
B14: Phage-2387 (peptide)
peptide: DAKWCIPDWMCYGF
B15: Phage-2237 (peptide)
peptide: VSAWCIPPWMCGTN
B16: Phage-2384 (peptide)
peptide: FYKWCTPEWMCTVN
B17: Phage-2391 (peptide)
peptide: FPKWCTPSWMCDFV
B18: Phage-2314 (peptide)
peptide: FVNWCIPTWMCPEI
B19: Phage-2322 (peptide)
peptide: LEKWCIPTWMCEMT
B20: Phage-2396 (peptide)
peptide: EVKWCIPEWMCMVV
B21: Phage-2398 (peptide)
peptide: FGISCTPSWMCEGF
B22: Phage-2374 (peptide)
peptide: MGNWCIPEWMCWGT
B23: Phage-2386 (peptide)
peptide: VEKWCKPEWMCTSL
B24: Phage-2388 (peptide)
peptide: TIKWCTPPWMCIMN
B25: Phage-2380 (peptide)
peptide: VQKWCIPPWMCQIS
B26: Phage-2313 (peptide)
peptide: LEKWCMPPWMCSGT
modifications: cysteine pairing not given here; also: displayed on bacteriophage by fusion to pIII
B27: Phage-2392 (peptide)
peptide: SPKWCTPSWMCELQ
B28: Phage-2320 (peptide)
peptide: VSNWCIPRGLCTQM
B29: Phage-2325 (peptide)
peptide: VEKLCIPHWMCEAS
B30: Phage-2393 (peptide)
peptide: LEKWCRPAWMCNGM
B31: Phage-2385 (peptide)
peptide: IPKWCTPVWMCAGF
B32: Phage-2394 (peptide)
peptide: LERWCIPDWMCEWP
B33: Phage-2397 (peptide)
peptide: VVKWCTPAWMCELQ
B34: Phage-2317 (peptide)
peptide: MEQWCIPQWMCSGF
B35: Phage-2377 (peptide)
peptide: HDKLCIPLWMCDGV
B36: Phage-2321 (peptide)
peptide: LDKWCIPPWMCETV
B37: Phage-2327 (peptide)
peptide: SVHWCTPPWMCQGF
B38: Phage-2316 (peptide)
peptide: GMLACTPAWMCEGF
B39: Phage-2324 (peptide)
peptide: HSHWCIPPWMCTFV
B40: Phage-2373 (peptide)
peptide: GEKWCIPTWMCDWT
B41: Phage-2235 (peptide)
peptide: FNKWCVPAWMCSDM
B42: Phage-2236 (peptide)
peptide: PRKWCIPAWMCEII
B43: Phage-2315 (peptide)
peptide: EARWCTPPWMCAYM
modifications: cysteine pairing not given here; also: displayed on bacteriophage by fusion to pIII
B44: Phage-2326 (peptide)
peptide: GPTLCIPAWMCSGM
B45: Phage-2383 (peptide)
peptide: FEHWCTPPWMCFSS

What was measured:
[1] = target: T1, 006 PSMA Fab; assay: clonal phage ELISA; biotinylated PSMA Fab on neutravidin plate, anti-M13-HRP detection
T1 construct: Biotinylated and captured on neutravidin-coated plates in the phage ELISA; also called Anti-PSMA Fab
Description: (§1) Clonal phage were harvested as crude supernatants and screened via standard ELISAs. […] Prior to the addition of clonal phage. wells were incubated with blocking buffer and PSMA antigen or blocking buffer alone. Without washing or aspirating, clonal phage supernatants were then added to the wells and incubated for a short time. Wells were then washed followed by detection of bound phage using a horse radish conjugated anti-M13 antibody.

[2] = target: T1, 006 PSMA Fab; assay: clonal phage ELISA on PSMA Fab-coated plate; competitor: PSMA antigen pre-incubated in the well
Description: as §1

[3] = target: T2, PSMA Fab (006 PSMA Fab); assay: clonal phage ELISA; biotinylated PSMA Fab on neutravidin plate pre-incubated with competitor PSMA antigen; anti-M13-HRP detection
T2 construct: also called Anti-PSMA Fab; anti-PSMA Fab
Description: as §1

[4] = target: T2, PSMA Fab (006 PSMA Fab); assay: clonal phage ELISA; biotinylated PSMA Fab on neutravidin plate, blocking buffer alone; anti-M13-HRP detection;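 further: clonal phage applied as crude supernatants to wells preincubated with blocking buffer, binding read by ELISA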
Description: as §1

[5] = target: T3, PSMA Fab; assay: phage ELISA, biotinylated PSMA Fab on neutravidin plate, bound phage detected with anti-M13-HRP
T3 construct: also called Anti-PSMA Fab; 006 PSMA Fab
Description: as §1

[6] = target: T3, PSMA Fab; assay: phage ELISA, biotinylated PSMA Fab on neutravidin plate pre-incubated with PSMA antigen as competitor, anti-M13-HRP
Description: as §1

[7] = target: T4, Anti-PSMA Fab (SEQ ID NOs: 19, 20); assay: phage binding ELISA on plate-captured PSMA Fab, wells pre-incubated with PSMA antigen as competitor
T4 construct: Biotinylated and captured on neutravidin coated plates in the phage ELISA; also called 006 PSMA Fab
Description: as §1

[8] = target: T4, Anti-PSMA Fab (SEQ ID NOs: 19, 20); assay: phage binding ELISA, clonal phage on plate-captured biotinylated PSMA Fab
Description: as §1

Binder | phage binding ELISA signal [1] | phage binding ELISA signal in presence of PSMA [2] | Phage binding ELISA signal, Anti-PSMA Fab in presence of PSMA antigen [3] | Phage binding ELISA signal, Anti-PSMA Fab [4] | other results
B1 | 1.39 | 0.0904 | – | – | –
B2 | – | – | 0.0715 | 1.45 | –
B3 | – | – | 0.116 | 1.45 | –
B4 | 1.39 | 0.0663 | – | – | –
B5 | 1.39 | 0.0793 | – | – | –
B6 | – | – | 0.0702 | 1.46 | –
B7 | 1.39 | 0.0617 | – | – | –
B8 | – | – | – | – | Phage binding ELISA signal, Anti-PSMA Fab [5]: 1.37; Phage binding ELISA signal, Anti-PSMA Fab with PSMA antigen [6]: 0.085
B9 | – | – | – | – | Phage binding ELISA signal, Anti-PSMA Fab [5]: 1.38; Phage binding ELISA signal, Anti-PSMA Fab with PSMA antigen [6]: 0.0997
B10 | – | – | 0.119 | 1.45 | –
B11 | 1.4 | 0.0859 | – | – | –
B12 | 1.39 | 0.101 | – | – | –
B13 | – | – | – | – | Phage binding ELISA signal, Anti-PSMA Fab [5]: 1.38; Phage binding ELISA signal, Anti-PSMA Fab with PSMA antigen [6]: 0.123
B14 | 1.38 | 0.0838 | – | – | –
B15 | – | – | – | – | Anti-PSMA Fab signal in the presence of PSMA [7]: 0.0801; Anti-PSMA Fab (SEQ ID NOs: 19, 20) signal [8]: 1.56
B16 | 1.38 | 0.138 | – | – | –
B17 | – | – | – | – | Phage binding ELISA signal, Anti-PSMA Fab [5]: 1.38; Phage binding ELISA signal, Anti-PSMA Fab with PSMA antigen [6]: 0.0984
B18 | – | – | 0.233 | 1.47 | –
B19 | – | – | 0.0679 | 1.45 | –
B20 | – | – | – | – | Phage binding ELISA signal, Anti-PSMA Fab [5]: 1.37; Phage binding ELISA signal, Anti-PSMA Fab with PSMA antigen [6]: 0.0647
B21 | – | – | – | – | Phage binding ELISA signal, Anti-PSMA Fab [5]: 1.37; Phage binding ELISA signal, Anti-PSMA Fab with PSMA antigen [6]: 0.0988
B22 | 1.4 | 0.0727 | – | – | –
B23 | 1.38 | 0.0692 | – | – | –

Binder | phage binding ELISA signal [1] | phage binding ELISA signal in presence of PSMA [2] | Phage binding ELISA signal, Anti-PSMA Fab in presence of PSMA antigen [3] | Phage binding ELISA signal, Anti-PSMA Fab [4] | other results
B24 | 1.38 | 0.103 | – | – | –
B25 | 1.39 | 0.0907 | – | – | –
B26 | – | – | 0.0701 | 1.47 | –
B27 | – | – | – | – | Phage binding ELISA signal, Anti-PSMA Fab [5]: 1.38; Phage binding ELISA signal, Anti-PSMA Fab with PSMA antigen [6]: 0.06
B28 | – | – | 0.0665 | 1.45 | –
B29 | – | – | 0.0647 | 1.45 | –
B30 | – | – | – | – | Phage binding ELISA signal, Anti-PSMA Fab [5]: 1.38; Phage binding ELISA signal, Anti-PSMA Fab with PSMA antigen [6]: 0.0594
B31 | 1.38 | 0.0806 | – | – | –
B32 | – | – | – | – | Phage binding ELISA signal, Anti-PSMA Fab [5]: 1.37; Phage binding ELISA signal, Anti-PSMA Fab with PSMA antigen [6]: 0.078
B33 | – | – | – | – | Phage binding ELISA signal, Anti-PSMA Fab [5]: 1.37; Phage binding ELISA signal, Anti-PSMA Fab with PSMA antigen [6]: 0.0757
B34 | – | – | 0.0911 | 1.46 | –
B35 | 1.39 | 0.0834 | – | – | –
B36 | – | – | 0.0597 | 1.45 | –
B37 | – | – | 0.0771 | 1.45 | –
B38 | – | – | 0.0923 | 1.47 | –
B39 | – | – | 0.162 | 1.45 | –
B40 | 1.4 | 0.0544 | – | – | –
B41 | – | – | – | – | Anti-PSMA Fab signal in the presence of PSMA [7]: 0.0946; Anti-PSMA Fab (SEQ ID NOs: 19, 20) signal [8]: 1.56
B42 | – | – | – | – | Anti-PSMA Fab signal in the presence of PSMA [7]: 0.0733; Anti-PSMA Fab (SEQ ID NOs: 19, 20) signal [8]: 1.56
B43 | – | – | 0.0724 | 1.47 | –
B44 | – | – | 0.0802 | 1.45 | –
B45 | 1.38 | 0.0713 | – | – | –
